Measurements from the RNAGym collection of RNA variant scans (doi:10.7554/elife.80360).

B1: HDV Ribozyme (parent)
chain: GGCCGGCAUGGUCCCAGCCUCCUCGCUGGCGCCGGCUGGGCAACAUUCCGAGGGGACCGUCCCCUCGGUAAUGGCGAAUGGGACCCA

Variants of: B1
Experiment: self-cleavage, relative activity (ratio to wild type); higher = more cleavage; co-transcriptional
For A45C C86A, the self-cleavage was 0.95.
U9C G81A gave a self-cleavage of 0.415.
C30G G38C gave a self-cleavage of 0.0594.
C21G G28A showed a self-cleavage of 0.0744.
In the case of G10A A42G, the self-cleavage is reported as 0.251.
With G53U C58A the self-cleavage was 1.02.
For C14G G29A, the self-cleavage was 0.107.
In the case of G28U G38A, the self-cleavage is reported as 0.0863.
U46C G82A showed a self-cleavage of 0.224.
Variant G28U G34U has a self-cleavage of 0.117.
G10A G28A showed a self-cleavage of 0.0336.
Work on G31U G74A yielded a self-cleavage of 0.151.
C66A A71G gave a self-cleavage of 0.782.
With U60G C84G the self-cleavage was 0.902.
In the case of G53C U72A, the self-cleavage is reported as 0.601.
G29U C64U gave a self-cleavage of 0.211.
C61G C63U showed a self-cleavage of 1.02.
C22G U47A gave a self-cleavage of 0.122.
For C75U C84G, the self-cleavage was 0.136.
Work on G59A A83G yielded a self-cleavage of 0.748.
Variant U9A G25U has a self-cleavage of 0.175.
Variant A71U C84A has a self-cleavage of 0.862.
For U46G G74A, the self-cleavage was 0.365.
For A43U C49U, the self-cleavage was 0.554.
Work on C4U G28U yielded a self-cleavage of 0.0277.
Variant C24U U69C has a self-cleavage of 0.831.
In the case of G5U G74U, the self-cleavage is reported as 0.
Variant G25C A71U has a self-cleavage of 0.19.
U46G G81C gave a self-cleavage of 0.175.
In the case of C4G U69A, the self-cleavage is reported as 0.192.
In the case of A42C C66G, the self-cleavage is reported as 0.243.
In the case of C32U C36G, the self-cleavage is reported as 0.0923.
With C36G C75U the self-cleavage was 0.233.
Work on C7G G67A yielded a self-cleavage of 0.128.
C13A A51C gave a self-cleavage of 0.0898.
G1A G11A showed a self-cleavage of 0.0779.
For G11A C58G, the self-cleavage was 0.415.
For C49G U79A, the self-cleavage was 0.895.
For G68U G80A, the self-cleavage was 0.171.
With G35C A43C the self-cleavage was 0.17.
G10A C19G showed a self-cleavage of 0.111.
C48A G67A showed a self-cleavage of 1.04.
In the case of G39A U60C, the self-cleavage is reported as 0.746.
Variant C14U A83U has a self-cleavage of 0.378.
Variant U37G A83G has a self-cleavage of 0.138.
C24A C33A gave a self-cleavage of 0.0811.
With U46G C63G the self-cleavage was 0.293.
Work on G67U C85U yielded a self-cleavage of 0.972.
A42C C44U gave a self-cleavage of 0.161.
G40A C62A gave a self-cleavage of 0.95.
Variant C32G G54C has a self-cleavage of 0.086.
Variant C63A C64G has a self-cleavage of 0.506.
For U23G C86G, the self-cleavage was 0.525.
Variant G38U A43U has a self-cleavage of 0.0963.
Variant G34A A42U has a self-cleavage of 0.0326.
G59C C85A gave a self-cleavage of 0.937.
Work on U72G G76A yielded a self-cleavage of 0.743.
In the case of C15A C33G, the self-cleavage is reported as 0.
Variant A16G C19A has a self-cleavage of 0.237.
For G17C C48A, the self-cleavage was 0.388.
Work on C14A C64G yielded a self-cleavage of 0.892.
In the case of G39U C57G, the self-cleavage is reported as 0.786.
Variant G28C C86A has a self-cleavage of 0.0583.
For G1U G76C, the self-cleavage was 0.277.
With G10A C64U the self-cleavage was 0.661.
Work on C61A C75G yielded a self-cleavage of 0.177.
With U47G G82U the self-cleavage was 0.123.
For U37A G50U, the self-cleavage was 0.128.
Variant U46G C85A has a self-cleavage of 0.831.
Variant C30G A78G has a self-cleavage of 0.0923.
Work on C7A G34C yielded a self-cleavage of 0.
G6U U46G showed a self-cleavage of 0.123.
In the case of C22U C62A, the self-cleavage is reported as 0.623.
With G1C U65A the self-cleavage was 0.
Variant C75A G76C has a self-cleavage of 0.166.
C3A U37G showed a self-cleavage of 0.0685.
U37C A71C gave a self-cleavage of 0.917.
G39A A83U showed a self-cleavage of 0.185.
C48U U65C gave a self-cleavage of 1.07.
For G40A C58U, the self-cleavage was 1.18.
With C15G U47C the self-cleavage was 0.128.
Work on C21U U60A yielded a self-cleavage of 0.237.
For C41U G74A, the self-cleavage was 0.637.
For G28U G67C, the self-cleavage was 0.0545.
With C15U C44G the self-cleavage was 0.214.
In the case of C3A C24A, the self-cleavage is reported as 0.0268.
G6U A43G gave a self-cleavage of 0.0665.
Variant C22G G40U has a self-cleavage of 0.104.
Work on U9A C22A yielded a self-cleavage of 0.388.
U12C C66A showed a self-cleavage of 0.332.
Variant G34A G39A has a self-cleavage of 0.198.
Work on C18G A83G yielded a self-cleavage of 0.0707.
C22G G81C showed a self-cleavage of 0.
G29U C58U showed a self-cleavage of 0.0292.
With G35A G55U the self-cleavage was 0.577.
Variant G28U A43C has a self-cleavage of 0.0755.
Variant A71C G73U has a self-cleavage of 0.141.
In the case of C14U G29A, the self-cleavage is reported as 0.188.
In the case of C21U G74A, the self-cleavage is reported as 0.149.
G29A A77G showed a self-cleavage of 0.095.
For C64G C75A, the self-cleavage was 0.201.
For U20A U65A, the self-cleavage was 0.0504.
Work on G35C C48G yielded a self-cleavage of 0.485.
G11C C14A gave a self-cleavage of 0.106.
With A43U A77G the self-cleavage was 0.277.
Variant C24G C75G has a self-cleavage of 0.13.
G1C C62A showed a self-cleavage of 0.101.
In the case of C66G C75G, the self-cleavage is reported as 0.383.
Work on A78G G81U yielded a self-cleavage of 0.185.
For C49U G67A, the self-cleavage was 0.891.
G50U G54A showed a self-cleavage of 0.85.
G17A G25C gave a self-cleavage of 0.158.
In the case of C41U A56G, the self-cleavage is reported as 0.7.
For C18A C66U, the self-cleavage was 0.0779.
U23G C36A gave a self-cleavage of 0.203.
For C64U A87G, the self-cleavage was 1.04.
With C22U C41A the self-cleavage was 0.674.
In the case of G35U G73U, the self-cleavage is reported as 0.19.
With G34A U72C the self-cleavage was 0.0692.
C30U A42U gave a self-cleavage of 0.0615.
For G55C G74A, the self-cleavage was 0.538.
C58A G59A showed a self-cleavage of 1.1.
In the case of C33U C44U, the self-cleavage is reported as 0.543.
With U47C A87C the self-cleavage was 0.95.
C44U A51C gave a self-cleavage of 0.931.
A42C G54U gave a self-cleavage of 0.312.
Work on U23C C84G yielded a self-cleavage of 0.739.
Variant C18A G39C has a self-cleavage of 0.0755.
C4A U69G showed a self-cleavage of 0.285.
With C63G U65G the self-cleavage was 0.277.
G25C G80C gave a self-cleavage of 0.17.
Work on C22A C86G yielded a self-cleavage of 0.208.
U12A A56U showed a self-cleavage of 0.403.
Variant G5U G40A has a self-cleavage of 0.364.
With U79G G80U the self-cleavage was 0.366.
In the case of G29C C41G, the self-cleavage is reported as 0.229.
With G10U C33G the self-cleavage was 0.0511.
In the case of A8C C64U, the self-cleavage is reported as 0.923.
For C36U C84U, the self-cleavage was 0.716.
For G59A G80C, the self-cleavage was 0.226.
Variant C64G U69A has a self-cleavage of 1.01.
In the case of C26G U27C, the self-cleavage is reported as 0.795.
With A8G C33G the self-cleavage was 0.0755.
With G11A C84G the self-cleavage was 0.851.
Work on U20A G68U yielded a self-cleavage of 0.
G17U C36A showed a self-cleavage of 0.0665.
C49G A83C showed a self-cleavage of 0.403.
C4A U60C showed a self-cleavage of 0.344.
For U37C A56G, the self-cleavage was 1.23.
Work on C24G C41A yielded a self-cleavage of 0.113.
A51U G52U gave a self-cleavage of 0.889.
For C13A G55U, the self-cleavage was 0.0707.
Variant C26U A45G has a self-cleavage of 0.831.
Work on A71U G80A yielded a self-cleavage of 0.175.
With G2C C19G the self-cleavage was 0.102.
Work on G6U G34A yielded a self-cleavage of 0.208.
Work on C4U C13U yielded a self-cleavage of 0.516.
For G29U G80A, the self-cleavage was 0.0934.
G25C U79A showed a self-cleavage of 0.0615.
With A45C G52U the self-cleavage was 0.697.
G10A C24A gave a self-cleavage of 0.367.
Variant G34U A87C has a self-cleavage of 0.119.
For C18G A45C, the self-cleavage was 0.
C32A G80A gave a self-cleavage of 0.183.
For G38A U79A, the self-cleavage was 0.0831.
Variant C30U G67C has a self-cleavage of 0.649.
C66U G76C gave a self-cleavage of 0.965.
